Laboratory results taken from article PMC4685008.

What was measured:
mGluR5 (endogenous) [1] = target: mGluR5 (endogenous) (UniProt Q3UVX5); assay: co-IP with myc antibody, mGluR5 blot
mGluR5 (endogenous) [2] = target: mGluR5 (endogenous) (UniProt Q3UVX5); assay: co-IP of myc-Homer; conditions: reference: H2WT replacement; sites S117,S216

Homer2 (H2) (from UniProt Q9QWW1) H2mycS117/216AA
binding against the reference (mGluR5 (endogenous) [1]; reference: H2mycWT, sites S117,S216): stronger

Homer1 (H1, long form) (from UniProt Q9Z2Y3) H1mycS117A
binding against the reference (mGluR5 (endogenous) [1]; reference: H1mycWT, sites S117): stronger

Homer2 (H2) (from UniProt Q9QWW1) H2S117/216AA replacement
binding against the reference (mGluR5 (endogenous) [2]): stronger
